The supplement of paper PMC12764529
± gives the half width of the 95% confidence interval.

test: folding stability dG unfold (combined trypsin and chymotrypsin); higher = more stable
In short: (§1)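 Digests were run with trypsin and chymotrypsin at 11 concentrations in threefold dilutions, plus a no-protease condition, on designed mini-proteins in a PA-tagged cDNA display construct. The mini-proteins were under 80 residues, had no cysteine, and were kept only when AlphaFold2 dimer inter-PAE was above 15. After sequencing, Bayesian fitting of the counts gave K50, from which unfolding free energy was derived against a sequence-predicted unfolded-state K50 and a shared folded-state K50, per protease or combined.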

Point of comparison: “SAGGSIKIDEIEPDPPGDRVKVKMDIPVPMYDPNGKPKEPMPIKITAEARVDPENGELAINMDIEMSAGGSA [r2_220_TrROS]”, “folding stability dG unfold” value 1.67 ± 0.53 kcal/mol. Against it:
- SAGGSAGGSAMPGKTYRVRIRLYNEETGELVEERELEVETLDELKEAAEKEGWKIVEIEVESAGGSAGGSAG [r3_423_TrROS_Hall] — higher, 3.36 ± 0.19 kcal/mol
- SAKIEVYELPDGSKEIVFEFGDKVIRVTFFPDYPLAVVEVFDPPKDEVVKTIPVRADDLEDTIKKILEESAG [r14_583_TrMRF] — higher, 2.67 ± 0.049 kcal/mol
- SAGGSAGGMKEITITNENGETLRIKVFNKETGEEKEIEFPAGMSLEDILKKLKEEEGLEVEIEPSAGGSAGG [r6_202_TrROS_Hall] — higher, 3.01 ± 0.16 kcal/mol
- SAGGSAGGSKITIKLIKNGEIVEEKEIEDKKTGKKIKIKAIKKDGKLYLVIEVDGKKYVIPLPSAGGSAGGS [r12_994_TrROS_Hall] — higher, 3.57 ± 0.39 kcal/mol
- SAGGSAGGSAKIMIPVDTPEEVKDIAEEFASNGNKEVEPHEDGWVSIEFPNGVPIEIWLPKDSAGGSAGGSA [r18_126_TrROS] — lower, 0.0345 ± 0.25 kcal/mol
- SAGGMELVIAVNSKEEAKKAAEEIKKKTPKGFKLEIEIEEYDLKENVEPEDKDIENIKVYLIKVKLESAGGS [r16_795_TrMRF] — within error, 1.69 ± 0.23 kcal/mol
- SAGGSAGGSAGGIIIPPGAKIVSIEKEGDFVKIKVYIPGSKKIETFKFPKGVPIIFEPEASAGGSAGGSAGG [r11_774_TrMRF] — higher, 3.41 ± 0.15 kcal/mol
- SMGSTTVTVELEFEVEDPSVFPPDTTVDVPEEVIEKLRAEGYTVTEITTTVEPTPSGRVRVRVTMTVRVDSA [r9_465_JUSTAS] — higher, 2.93 ± 0.095 kcal/mol
- SAGGSAGGSAGGPYVVKVKLKDGSVVELPVEEDHIPTIEDLVKAGIPPELIESVEIEPESAGGSAGGSAGGS [r10_565_TrMRF] — higher, 2.91 ± 0.1 kcal/mol
- SAGGSAGGKPDLLLEARTDLFGEEREAEVFYDPSPPVLTITLPDGTVITLPEEEVEIEKETPLISAGGSAGG [r6_185_JUSTAS] — lower, -0.243 ± 0.28 kcal/mol
- SAGGSAGGSMTPVPGGYVITIETPAPGGVPLATLYVPSREEAEAAIAEIPAEDLTAVTVEPVLLSAGGSAGG [r6_705_JUSTAS] — lower, 0.719 ± 0.081 kcal/mol
- SAGGSAGGSTITITTVIEKDGELYVIEAKIEVTEVYYDKKTKKKVKVKVKIEIKIEKVPLEDLSAGGSAGGS [r12_809_TrROS_Hall] — higher, 3.07 ± 0.45 kcal/mol
- SAGGSAGGSAGGMTLEELKKAIENAKPGETIEIEINGETYRITIIEKDGKLIIKIEKLPPSAGGSAGGSAGG [r7_448_TrROS_Hall] — higher, 4.19 ± 0.24 kcal/mol
- SAGKTITVTSTHPDGRTATVTYTTLPDGSFKITSFTWEPWPDGTVTAKITTPDGTVITVNSIDDILKALSAG [r5_618_TrMRF] — higher, 3.27 ± 0.099 kcal/mol
- SAGGSAGGSDLVRVEMLITKIVPGTGDPVETVKIEVEVPRSEIPKVIEEIPEGYEVTEIKFIPESAGGSAGG [r6_777_JUSTAS] — within error, 1.57 ± 0.11 kcal/mol
- SAGGSAGGSAGGLEIEFWFFFPDEGYMIEVEWERDPDGPIEPTKITEIHPMPDGQPNPGFSAGGSAGGSAGG [r11_750_TrROS] — within error, 1.94 ± 0.087 kcal/mol
- SAGGSAGGSAGGGRVELELTFIREDGYAVKVRIEVDEDGNLRIEVEVVKLPPAASPEELSAGGSAGGSAGGS [r10_878_TrROS_Hall] — higher, 2.86 ± 0.088 kcal/mol
- SAGGSAGGSLEKIKEALKKAGYPPENVVIEVKTLPNGEIVITVKYNGKEIPKEIVEEAIKKLKSAGGSAGGS [r12_175_JUSTAS] — higher, 3.45 ± 0.066 kcal/mol
- SAGGSAGGSAGMYVITIKLPSGEVIKIKTDPKNPEEAIKKLEPQYPPAEFEVKEVPENEISAGGSAGGSAGG [r11_103_JUSTAS] — lower, 0.254 ± 0.18 kcal/mol
- SAGEKIKEALKKAGVEKVEIVEIKRLKNGKVLIVIRLHPDMSEEQRRRLLKALADALREEFPDVKIVELSAG [r5_101_TrROS_Hall] — higher, 4.5 ± 0.052 kcal/mol
- SAGGSAGGSMPLKLVELKPLEESTGENGVPTVRVELVLERPGERITVELEVSPEEIEALIKKLLSAGGSAGG [r6_379_JUSTAS] — within error, 1.56 ± 0.19 kcal/mol
- SAGGSAGGSAGGRKRYRFKPGQRLEPRLVFRLKLRLELERDEDGNLSLKLELEIEEVRLLSAGGSAGGSAGG [r7_572_TrROS_Hall] — higher, 4.09 ± 0.29 kcal/mol
- SAGGSAGGSAGGSLEIEITFELPDDVRLRIRARIEPLPDGSLKVEVEIELIPVKPDEDLSAGGSAGGSAGGS [r10_241_TrMRF] — higher, 3.09 ± 0.21 kcal/mol
- SAELKISKIDVSSLPDGSKKVTVNFSAPNFKVTITLDKSGNVSVEVSPEARKLPPEFFNLILNLAKELGSAG [r14_555_TrMRF] — higher, 3.96 ± 0.1 kcal/mol
- SSMSIEIKEVEEDPVGSEAKPRVVREKVTLEGTEVELTVTVTEAPSGETTVTTTLTFPGSGKTFSFTFDTSA [r9_241_JUSTAS] — higher, 2.62 ± 0.058 kcal/mol
- SAGGSMQSVTSYDPNGVTYTTEFLPDEDVVTYTKTTDGTVTTTKVERLDEDGVPVPLSTSTTTLGGSAGGSA [r2_60_JUSTAS] — lower, 0.107 ± 0.16 kcal/mol
- SAGGSAGGSAEEEEMPVEELVRRKAREVEEAFPGLRGERRITVTVTLPEGETWTAELVLPLSAGGSAGGSAG [r3_64_TrMRF] — lower, 0.507 ± 0.13 kcal/mol
- SAGGSGKKVKIKINIVVVFPPGDPDLAKEIAKWFARTIARELQAQGFEDIKDIEIRVHVIPPNQPGFSAGGS [r16_289_TrROS] — higher, 3.44 ± 0.12 kcal/mol
- SAGGSAGGMLSPEVLEDPEKVIEFLKKMIPGLKIVVPPDAPPEVVEAAAKLAEETGIPVEIVVGSAGGSAGG [r6_129_TrMRF] — lower, 0.555 ± 0.18 kcal/mol
- SAGGMVQISVTEIDPETGLITIEMKFPKGVDDPAKIAAAKAEAEAFAQELEKKLGLPVKVTFTPLPESAGGS [r16_304_JUSTAS] — within error, 1.93 ± 0.043 kcal/mol
- SAGGSAGGSAGSMEPVKTEELESGEVRTVSLLPDGTIKEELIKIEGEGETVETKVVPLEESAGGSAGGSAGG [r11_699_JUSTAS] — within error, 1.48 ± 0.2 kcal/mol
- SAGGSGPMTRSITITVTPEIVRDEKGNVTATKYTVTITRSPEVSPEEVEALAAELNAAGIPTTVTPSAGGSA [r2_456_JUSTAS] — within error, 1.5 ± 0.083 kcal/mol
- SAGPSLEVEVERLPGPYVRITARYSRDVPVEVLVEELRAAAPVEVRVEEDPERDFVTVVAVLPLAPDAGSAG [r5_742_TrMRF] — within error, 1.46 ± 0.08 kcal/mol
- SAGGMKLEIYLRFKTEEEAKKAVEELIRKLLEELGLEVEVEVVYDEETKEVYVKVTVTFPELPEEELSAGGS [r8_17_TrROS_Hall] — higher, 4.4 ± 0.39 kcal/mol
- SAGSITITIETLPDGTIRITIPYTSEEEAKKVAEEVAKEIAEKLGEEVIKFEVTPEDDDTLILTIPIKKSAG [r5_772_JUSTAS] — within error, 1.78 ± 0.28 kcal/mol
- SAYYIIIKIENPNDGKPFIIMIPGNNIHIFDPDNGKPVEIEVDGDKIEIKFNNRPVTVKPLEVIPPEAISAG [r14_208_TrROS] — within error, 2.15 ± 0.23 kcal/mol
- SAGGSAGGSAMKPVPFEVLSVSYPVLPNGTRIRLVEIKFPETGEVKWIELSPDDPVIKALLSAGGSAGGSAG [r3_57_JUSTAS] — within error, 2.06 ± 0.086 kcal/mol
- SAGGSAGGSAGSMLLSLSIASVETTETTEIDPETGEKRKVTTTTITIPGTGQTITLTETVESAGGSAGGSAG [r3_424_JUSTAS] — within error, 1.28 ± 0.065 kcal/mol
- SAGGMITLPIPLEEAEKLLKELTPDGGDVTTTPLGSLDGEVLYEVTITPPETGNTVTVKVLVPKGRGSAGGS [r16_486_JUSTAS] — lower, 0.0837 ± 0.16 kcal/mol
- SAGGSAGGSAGMTVEVVKSVVPTKTNETVIVTTVTEVEPPTGKVTTLETKTVSTANPELLSAGGSAGGSAGG [r11_777_JUSTAS] — lower, -0.369 ± 0.23 kcal/mol
- PKIEITRVEYHPNEGYYRVTVKLPGKDVSIYMGPENGMMQVYFPGNGREREFPFDSMDDAVDRAKELLKERS [r1_177_TrROS] — within error, 1.23 ± 0.28 kcal/mol

test: folding stability dG unfold from chymotrypsin proteolysis; higher = more stable
In short: as §1

Point of comparison: “SMGSTTVTVELEFEVEDPSVFPPDTTVDVPEEVIEKLRAEGYTVTEITTTVEPTPSGRVRVRVTMTVRVDSA [r9_465_JUSTAS]”, “folding stability dG unfold” value 2.77 ± 0.049 kcal/mol. Against it:
- SAGGSAGGSAMPGKTYRVRIRLYNEETGELVEERELEVETLDELKEAAEKEGWKIVEIEVESAGGSAGGSAG [r3_423_TrROS_Hall] — higher, 3.49 ± 0.11 kcal/mol
- SAKIEVYELPDGSKEIVFEFGDKVIRVTFFPDYPLAVVEVFDPPKDEVVKTIPVRADDLEDTIKKILEESAG [r14_583_TrMRF] — higher, 3.07 ± 0.049 kcal/mol
- SAGGSAGGMKEITITNENGETLRIKVFNKETGEEKEIEFPAGMSLEDILKKLKEEEGLEVEIEPSAGGSAGG [r6_202_TrROS_Hall] — higher, 3.16 ± 0.071 kcal/mol
- SAGGSAGGSKITIKLIKNGEIVEEKEIEDKKTGKKIKIKAIKKDGKLYLVIEVDGKKYVIPLPSAGGSAGGS [r12_994_TrROS_Hall] — higher, 3.93 ± 0.089 kcal/mol
- SAGGSAGGSAKIMIPVDTPEEVKDIAEEFASNGNKEVEPHEDGWVSIEFPNGVPIEIWLPKDSAGGSAGGSA [r18_126_TrROS] — lower, 0.488 ± 0.062 kcal/mol
- SAGGMELVIAVNSKEEAKKAAEEIKKKTPKGFKLEIEIEEYDLKENVEPEDKDIENIKVYLIKVKLESAGGS [r16_795_TrMRF] — lower, 2.01 ± 0.21 kcal/mol
- SAGGSAGGSAGGIIIPPGAKIVSIEKEGDFVKIKVYIPGSKKIETFKFPKGVPIIFEPEASAGGSAGGSAGG [r11_774_TrMRF] — higher, 3.24 ± 0.075 kcal/mol
- SAGGSAGGSAGGPYVVKVKLKDGSVVELPVEEDHIPTIEDLVKAGIPPELIESVEIEPESAGGSAGGSAGGS [r10_565_TrMRF] — higher, 3.09 ± 0.093 kcal/mol
- SAGGSAGGKPDLLLEARTDLFGEEREAEVFYDPSPPVLTITLPDGTVITLPEEEVEIEKETPLISAGGSAGG [r6_185_JUSTAS] — lower, -0.273 ± 0.065 kcal/mol
- SAGGSAGGSMTPVPGGYVITIETPAPGGVPLATLYVPSREEAEAAIAEIPAEDLTAVTVEPVLLSAGGSAGG [r6_705_JUSTAS] — lower, 0.566 ± 0.13 kcal/mol
- SAGGSAGGSTITITTVIEKDGELYVIEAKIEVTEVYYDKKTKKKVKVKVKIEIKIEKVPLEDLSAGGSAGGS [r12_809_TrROS_Hall] — higher, 3.28 ± 0.23 kcal/mol
- SAGGSAGGSAGGMTLEELKKAIENAKPGETIEIEINGETYRITIIEKDGKLIIKIEKLPPSAGGSAGGSAGG [r7_448_TrROS_Hall] — higher, 4.21 ± 0.25 kcal/mol
- SAGKTITVTSTHPDGRTATVTYTTLPDGSFKITSFTWEPWPDGTVTAKITTPDGTVITVNSIDDILKALSAG [r5_618_TrMRF] — higher, 3.52 ± 0.05 kcal/mol
- SAGGSAGGSDLVRVEMLITKIVPGTGDPVETVKIEVEVPRSEIPKVIEEIPEGYEVTEIKFIPESAGGSAGG [r6_777_JUSTAS] — lower, 1.18 ± 0.062 kcal/mol
- SAGGSAGGSAGGLEIEFWFFFPDEGYMIEVEWERDPDGPIEPTKITEIHPMPDGQPNPGFSAGGSAGGSAGG [r11_750_TrROS] — lower, 2 ± 0.04 kcal/mol
- SAGGSAGGSAGGGRVELELTFIREDGYAVKVRIEVDEDGNLRIEVEVVKLPPAASPEELSAGGSAGGSAGGS [r10_878_TrROS_Hall] — lower, 2.31 ± 0.072 kcal/mol
- SAGGSAGGSLEKIKEALKKAGYPPENVVIEVKTLPNGEIVITVKYNGKEIPKEIVEEAIKKLKSAGGSAGGS [r12_175_JUSTAS] — higher, 3.72 ± 0.08 kcal/mol
- SAGGSAGGSAGMYVITIKLPSGEVIKIKTDPKNPEEAIKKLEPQYPPAEFEVKEVPENEISAGGSAGGSAGG [r11_103_JUSTAS] — lower, -0.198 ± 0.26 kcal/mol
- SAGEKIKEALKKAGVEKVEIVEIKRLKNGKVLIVIRLHPDMSEEQRRRLLKALADALREEFPDVKIVELSAG [r5_101_TrROS_Hall] — higher, 4.33 ± 0.051 kcal/mol
- SAGGSIKIDEIEPDPPGDRVKVKMDIPVPMYDPNGKPKEPMPIKITAEARVDPENGELAINMDIEMSAGGSA [r2_220_TrROS] — lower, 1.4 ± 0.33 kcal/mol
